B1: PTPRD (parent)
chain: LTKLREMGREKCHQYWPAERSARY
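Also: lentivirally expressed fusions sorted by FACS into six bins by GFP to DsRed ratio, PSI derived from sequencing read proportions per bin multiplied by bin number.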

Variants of: B1
Assay: protein stability index of a GFP-peptide fusion (GPS, HEK-293T) (PSI 1-6); higher = more stable
Conditions: c terminus: a fixed tail appended
R9S gave a protein stability index of 2.81.
R9F gave a protein stability index of 2.38.
Work on R9G yielded a protein stability index of 2.79.
R9Q showed a protein stability index of 3.05.
Work on R9C yielded a protein stability index of 2.15.
For R9I, the protein stability index was 2.29.
R9Y showed a protein stability index of 2.16.
For R9W, the protein stability index was 2.04.
With R9K the protein stability index was 2.84.
In the case of R9L, the protein stability index is reported as 2.73.
For R9V, the protein stability index was 1.92.
For R9P, the protein stability index was 2.53.
R9T showed a protein stability index of 2.65.
R9H showed a protein stability index of 2.73.
Variant R9N has a protein stability index of 2.68.
R9M showed a protein stability index of 2.8.
With R9A the protein stability index was 2.64.
With R9D the protein stability index was 3.48.
In the case of R9E, the protein stability index is reported as 2.86.
For W16F, the protein stability index was 2.91.
W16C showed a protein stability index of 2.8.
In the case of W16G, the protein stability index is reported as 3.25.
Work on W16N yielded a protein stability index of 3.5.
Variant W16L has a protein stability index of 2.96.
With W16K the protein stability index was 3.03.
In the case of W16H, the protein stability index is reported as 2.91.
Work on W16M yielded a protein stability index of 2.85.
W16I gave a protein stability index of 2.7.
For W16D, the protein stability index was 3.8.
W16E gave a protein stability index of 3.47.
Variant W16A has a protein stability index of 3.15.
With E10M the protein stability index was 1.83.
Work on E10K yielded a protein stability index of 2.03.
For E10L, the protein stability index was 1.99.
Work on E10Q yielded a protein stability index of 1.97.
In the case of E10P, the protein stability index is reported as 2.71.
In the case of E10S, the protein stability index is reported as 2.3.
With E10V the protein stability index was 2.28.
In the case of E10Y, the protein stability index is reported as 2.48.
E10A showed a protein stability index of 2.08.
Variant E10N has a protein stability index of 2.46.
E10G showed a protein stability index of 2.25.
Work on E10H yielded a protein stability index of 2.05.
In the case of E10T, the protein stability index is reported as 1.87.
In the case of E10F, the protein stability index is reported as 2.13.
For E10D, the protein stability index was 2.3.
Variant E10R has a protein stability index of 2.42.
In the case of E10I, the protein stability index is reported as 1.91.
E10C showed a protein stability index of 2.65.
For E10W, the protein stability index was 2.15.
Variant G8K has a protein stability index of 2.04.
In the case of G8I, the protein stability index is reported as 1.29.
For G8F, the protein stability index was 1.73.
In the case of G8P, the protein stability index is reported as 2.44.
G8L gave a protein stability index of 1.67.
G8T gave a protein stability index of 2.95.
For G8N, the protein stability index was 2.29.
G8C showed a protein stability index of 2.39.
For G8S, the protein stability index was 1.94.
Work on G8A yielded a protein stability index of 2.02.
With G8H the protein stability index was 1.93.
G8D gave a protein stability index of 3.22.
For G8W, the protein stability index was 1.85.
G8E gave a protein stability index of 2.65.
Work on G8Q yielded a protein stability index of 3.13.
Work on G8Y yielded a protein stability index of 2.03.
Work on G8R yielded a protein stability index of 2.53.
G8V showed a protein stability index of 2.58.
In the case of G8M, the protein stability index is reported as 2.07.
Q14V gave a protein stability index of 2.61.
Q14T showed a protein stability index of 2.62.
Work on Q14G yielded a protein stability index of 2.46.
With Q14E the protein stability index was 3.05.
With Q14I the protein stability index was 2.27.
For Q14D, the protein stability index was 2.47.
For Q14M, the protein stability index was 2.04.
Q14S gave a protein stability index of 2.68.
In the case of Q14L, the protein stability index is reported as 2.5.
For Q14A, the protein stability index was 2.46.
In the case of Q14R, the protein stability index is reported as 2.04.
Variant Q14H has a protein stability index of 2.95.
With Q14K the protein stability index was 2.48.
Q14N gave a protein stability index of 2.64.
With Q14Y the protein stability index was 1.85.
In the case of Q14F, the protein stability index is reported as 1.84.
Q14P gave a protein stability index of 1.69.
Variant Q14W has a protein stability index of 1.41.
Q14C showed a protein stability index of 1.82.
Variant M7T has a protein stability index of 2.71.
In the case of M7V, the protein stability index is reported as 2.56.
M7W gave a protein stability index of 1.67.
Variant M7Y has a protein stability index of 2.7.
Variant K11V has a protein stability index of 2.53.
In the case of K11G, the protein stability index is reported as 2.61.
Work on K11W yielded a protein stability index of 1.89.
Variant K11C has a protein stability index of 2.34.
In the case of K11Y, the protein stability index is reported as 2.39.
Variant K11N has a protein stability index of 2.74.
K11F gave a protein stability index of 2.14.
Variant K11R has a protein stability index of 2.26.
Work on K11P yielded a protein stability index of 2.6.
K11T gave a protein stability index of 2.5.
K11L showed a protein stability index of 2.21.
Work on K11S yielded a protein stability index of 2.4.
K11D gave a protein stability index of 3.21.
For K11H, the protein stability index was 2.4.
K11E gave a protein stability index of 3.17.
For K11A, the protein stability index was 3.23.
Work on K11I yielded a protein stability index of 2.53.
With K11Q the protein stability index was 2.44.
Work on K11M yielded a protein stability index of 2.64.
In the case of Y15D, the protein stability index is reported as 3.31.
With Y15F the protein stability index was 2.86.
With Y15E the protein stability index was 3.54.
Y15H showed a protein stability index of 3.41.
With Y15L the protein stability index was 2.46.
In the case of Y15M, the protein stability index is reported as 2.53.
With Y15S the protein stability index was 2.92.
With Y15I the protein stability index was 2.59.
In the case of Y15T, the protein stability index is reported as 2.82.
With Y15N the protein stability index was 3.19.
With Y15Q the protein stability index was 2.79.
For Y15R, the protein stability index was 2.82.
Variant Y15C has a protein stability index of 2.6.
In the case of Y15G, the protein stability index is reported as 3.46.
For Y15W, the protein stability index was 1.99.
Y15K showed a protein stability index of 3.1.
Work on Y15P yielded a protein stability index of 2.64.
In the case of Y15A, the protein stability index is reported as 2.93.
Work on C12G yielded a protein stability index of 2.98.
C12V gave a protein stability index of 2.35.
With C12R the protein stability index was 2.51.
With C12D the protein stability index was 3.48.
C12H gave a protein stability index of 2.83.
In the case of C12Q, the protein stability index is reported as 2.83.
Work on C12Y yielded a protein stability index of 2.98.
Variant C12K has a protein stability index of 2.27.
With C12I the protein stability index was 2.35.
For C12S, the protein stability index was 2.66.
C12W showed a protein stability index of 2.25.
With C12P the protein stability index was 3.09.
C12T gave a protein stability index of 3.38.
For C12N, the protein stability index was 3.04.
C12E showed a protein stability index of 3.11.
For C12A, the protein stability index was 3.2.
Variant C12M has a protein stability index of 2.1.
C12L showed a protein stability index of 2.39.
In the case of C12F, the protein stability index is reported as 2.58.
With H13E the protein stability index was 2.74.
In the case of H13I, the protein stability index is reported as 2.33.
Work on H13D yielded a protein stability index of 3.17.
With H13F the protein stability index was 2.15.
Variant H13V has a protein stability index of 2.02.
H13S gave a protein stability index of 2.28.
Variant H13W has a protein stability index of 1.77.
With H13K the protein stability index was 2.53.
H13G gave a protein stability index of 2.66.
H13A showed a protein stability index of 2.66.
H13R gave a protein stability index of 2.31.
With H13Q the protein stability index was 2.83.
H13Y showed a protein stability index of 2.38.
In the case of H13C, the protein stability index is reported as 1.86.
H13P showed a protein stability index of 2.43.
Variant H13T has a protein stability index of 2.65.
With H13L the protein stability index was 2.77.
H13N gave a protein stability index of 2.79.
Work on H13M yielded a protein stability index of 1.97.
